# Laboratory results published in publication PMC2671838.
# Biological target: Porphyromonas gingivalis heme-binding protein HmuY, heme-bound form (holo-HmuY) (Porphyromonas gingivalis)
# Assay: crystal structure; holo-HmuY (heme-bound), sitting-drop vapor diffusion at 20°C, 26 mg/mL protein in 5 mM Tris/HCl pH 8.0, reservoir 2.4 M (NH4)2SO4, 0.1 M MES pH 6.0; tetragonal crystals, one dimer per asymmetric unit; tetramer created by a local and a crystallographic two-fold axis
substance,measurement,value
"Porphyromonas gingivalis heme-binding protein HmuY, heme-bound form (holo-HmuY) (natural protein)",stoichiometry N,4
